Results as given in publication PMC11499270 (Nature, 2024).

Tests used:
[1] = biological target: human insulin receptor A (human) (UniProt P06213); experiment: radioligand binding
[2] = pigs; previously observed; cited from earlier work

Substance | fold increase in hIR-A affinity, 20 vs 0 mM glucose, without albumin [1] [fold] | half-life after s.c. administration [2] [h]
NNC2215 (from UniProt P01308 90-110; P01308 25-53) (ligand) | 6.8 | –
insulin detemir | – | 6.5
